The source of these data is article PMC8556680.

Series [1] has as its target T1, GST-ZNF410 ZF1-ZF5 (Homo sapiens, UniProt Q86VK4 217-366).
T1 sequence: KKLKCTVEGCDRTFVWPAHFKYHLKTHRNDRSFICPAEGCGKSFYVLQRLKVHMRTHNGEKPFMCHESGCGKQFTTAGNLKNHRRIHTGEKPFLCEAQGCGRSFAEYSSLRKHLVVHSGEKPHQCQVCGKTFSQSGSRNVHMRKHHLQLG
The series is described as follows: fluorescence polarization. Background: In fluorescence polarisation assays a small probe gives low polarisation when free and higher when bound to something large.

Series [2] concerns the target T1, GST-ZNF410 ZF1-ZF5. The series is described as follows: fluorescence polarization. This is another data set of the same source.

B1: negative control oligo (FAM) (dsDNA)
DNA 1: TCCACTGCCAGGACCTTT
DNA 2: AAAAGGTCCTGGCAGTGG
Take B1: in series [1], the binding result was “no binding”.

B2: 17-bp consensus oligo (FAM) (dsDNA)
DNA 1: CACATCCCATAATAATG
DNA 2: CATTATTATGGGATGTG
What is called Kd is the concentration at which binding is half-saturated. A high value points to lower affinity. Take B2: the Kd in series [2] turned out to be 22 nM.
